doi:10.1101/2021.05.23.445342 (2021)

Biological target: Calcineurin (human PPP3CA / PPP3R1 heterodimer) (human, UniProt Q08209 1-521; P63098 1-170)
Experiment: SPR; apparent, steady-state fit

- Kd: 550 nM
B1: Biotin-Cys-AKAP5c_(ILVF->SA) (domain or fragment)
chain: CVAEETKPKDTELSQESDFKENGITEEKSKSEESKRMEPIAIIITDTEISEFDVTKSKNVPKQASASAENEQVGVFANDNGFEDRTSEQYETASAETASSLVKNAAQSSAEQSANEMASDDNKINNLLQ
modifications: biotin (EZ-Link Maleimide-PEG2-Biotin) on the unique added N-terminal Cys
